Test results: publication PMC11162469, “Discovery of RXFP2 genetic association in resistant hypertensive men and RXFP2 antagonists for the treatment of resistant hypertension” (Scientific Reports, 2024)

What was measured:
human RXFP2 = human RXFP2 (Homo sapiens, UniProt Q8WXD0); assay: INSL3-stimulated cAMP assay in HEK293 stably expressing human RXFP2
Experimental: RXFP activity assays were developed in HEK293 with stable expression of RXFP2 or RXFP1.
The same approach was used to generate stable HEK293 lines expressing human and rat RXFP1 and RXFP2 cDNA. The cAMP assay was conducted using the Eurofin Hithunter kit per manufacturer’s instructions in a 384-well format. All dose curve fitting and EC50 and IC50 determinations were performed in Prism (v9.3.0) using the non-linear fit, variable slope (four parameter) function.

[1] = molecular target: T1, human LDLa peptide (UnitProt Q8WXD0 43-80) (Homo sapiens, UniProt Q8WXD0); assay: ELISA binding to linker-less human LDLa peptide
T1 construct: human LDLa peptide (Q8WXD0 43-80)
T1 sequence (Q8WXD0 43-80 limits assumed): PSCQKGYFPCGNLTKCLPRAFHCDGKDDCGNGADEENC
Experimental: The human/rat RXFP2 cross reactive antibodies belong to two epitope bins and were further evaluated for binding to the linker-less human LDLa peptide (UnitProt Q8WXD0 43-80) by ELISA. […] The different domain requirements for binding are consistent with results from the binning experiment showing 4F6 and 4G6 are in a separate bin from 4B1.
Rat LDLa-linker_ratFc, human LDLa-linker_ratFc, or ratFc, or human LDLa peptide (Q8WXD0 43-80) was diluted to 1 µg/mL in 1X PBS and immobilized in separate 96-well ELISA plates (Nunc Maxisorp), 50 µL/well. The plates were then incubated overnight at 4 °C. The following day the plates were washed three times with ELISA wash buffer (PBS + 0.05% Tween-20) and then blocked with ELISA blocking buffer (PBS + 0.05% Tween-20 + 1% BSA), 200 µL/well, and incubated 1 h at room temperature on a shaker. Plates were again washed three times followed by the addition of the primary antibodies. Hybridoma supernatant was added neat, 50 µL/well; mouse serum was added 1:100 and then serially diluted 1:2 for 8 points, 50 µL/well. Purified antibodies were added 5 µg/mL in the first well and serially diluted down the plate 1:2 for 8 points, 50 µL/well. Primary antibody was incubated for 1 h at room temperature on a shaker. […] Stopping solution (2N Sulfuric acid) was added to the plates 50 µL/well, and then read on a plate reader (SpectraMax Molecular Devices) at 450 nm.

rat RXFP2 = rat RXFP2 (Rattus norvegicus, UniProt F7EMH8); assay: INSL3-stimulated cAMP assay in HEK293 stably expressing rat RXFP2; conditions: INSL3 EC80-stimulated cAMP, stable expression, N = 2;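 also: cAMP measured with an HitHunter kit in 384-well plates, 11-point dose–response curves up to 1 µM antibody, four-parameter variable-slope fit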
Sequence of rat RXFP2 (F7EMH8 20-737): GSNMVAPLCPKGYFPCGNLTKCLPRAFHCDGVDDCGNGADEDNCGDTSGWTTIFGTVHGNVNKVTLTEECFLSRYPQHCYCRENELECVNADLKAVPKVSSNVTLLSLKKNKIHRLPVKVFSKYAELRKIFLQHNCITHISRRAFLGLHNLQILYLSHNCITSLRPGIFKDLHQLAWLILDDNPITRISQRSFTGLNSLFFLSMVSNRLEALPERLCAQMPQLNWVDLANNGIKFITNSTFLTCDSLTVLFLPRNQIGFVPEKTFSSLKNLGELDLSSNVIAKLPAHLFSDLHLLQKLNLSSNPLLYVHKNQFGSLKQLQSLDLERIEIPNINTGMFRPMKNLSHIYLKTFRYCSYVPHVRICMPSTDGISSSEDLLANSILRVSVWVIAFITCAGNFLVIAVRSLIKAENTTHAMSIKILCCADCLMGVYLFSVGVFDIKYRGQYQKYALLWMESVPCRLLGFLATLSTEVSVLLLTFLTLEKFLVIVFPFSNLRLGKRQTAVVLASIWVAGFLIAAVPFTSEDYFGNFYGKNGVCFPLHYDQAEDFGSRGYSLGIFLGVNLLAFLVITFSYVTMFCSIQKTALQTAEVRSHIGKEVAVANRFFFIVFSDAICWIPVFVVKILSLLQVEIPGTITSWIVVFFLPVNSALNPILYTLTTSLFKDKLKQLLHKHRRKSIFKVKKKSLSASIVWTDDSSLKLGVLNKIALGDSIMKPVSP

Sequence of human RXFP2 (Q8WXD0 whole entry): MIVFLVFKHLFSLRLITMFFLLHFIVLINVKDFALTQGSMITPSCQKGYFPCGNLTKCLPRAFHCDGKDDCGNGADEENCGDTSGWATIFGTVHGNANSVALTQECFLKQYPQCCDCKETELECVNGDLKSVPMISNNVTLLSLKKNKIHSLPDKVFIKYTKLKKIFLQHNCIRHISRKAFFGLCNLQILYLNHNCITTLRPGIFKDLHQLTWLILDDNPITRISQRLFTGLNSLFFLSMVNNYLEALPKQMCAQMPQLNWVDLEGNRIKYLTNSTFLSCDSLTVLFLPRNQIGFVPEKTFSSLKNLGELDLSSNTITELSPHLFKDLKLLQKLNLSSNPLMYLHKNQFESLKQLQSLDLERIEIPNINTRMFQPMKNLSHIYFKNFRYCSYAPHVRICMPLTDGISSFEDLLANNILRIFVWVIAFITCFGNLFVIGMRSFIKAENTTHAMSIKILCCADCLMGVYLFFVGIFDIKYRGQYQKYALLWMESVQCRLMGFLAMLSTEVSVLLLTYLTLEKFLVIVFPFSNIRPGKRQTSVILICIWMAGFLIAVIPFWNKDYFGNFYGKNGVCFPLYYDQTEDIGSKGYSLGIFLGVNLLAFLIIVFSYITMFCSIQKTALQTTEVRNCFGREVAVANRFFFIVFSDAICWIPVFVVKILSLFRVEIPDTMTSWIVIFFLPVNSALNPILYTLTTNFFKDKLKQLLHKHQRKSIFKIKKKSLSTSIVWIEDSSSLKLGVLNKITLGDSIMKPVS

B1: 4G6: Human/rat cross-reactive RXFP2 monoclonal antibody, rat IgG2b backbone; binds the LDLa domain (antibody, V domains shown)
VH: EVQLQQSGPELVKPGASVKLSCKASGYTFTSYVMHWVKQKPEQGLEWIGYKNPSNDGIKYNEKFKGKATLTSDKSSNIAYMELFSLTSEDSAVYYCARSDFGSVWAMDYWGQGTSVTVSS
VL: SIVMTQTPKFLLVSAGDRVTITCKASQSVNDDIVWYQQKPGQSPKLLIYYASNRYTGVPDRFTGSGYGTDFTFTISTVQAGDLAVYFCQQDYSSPFTFGSGTKLEIK
With B1 the “blockade of hRXFP2” value (human RXFP2; INSL3-stimulated cAMP, HEK293-hRXFP2) was “strong blockade”, the “HEK293-human RXFP2 cAMP % Max Response” value (human RXFP2; INSL3 EC80-stimulated cAMP, stable expression, N = 2) was 84.5% and the IC50 (human RXFP2; read-out: HEK293-human RXFP2 cAMP IC50, INSL3 EC80-stimulated cAMP, stable expression, N = 2) was 15.6 nM. The “binding to linker-less human LDLa peptide” value [1] was “bind”, the “HEK293-rat RXFP2 cAMP % Max Response” value (rat RXFP2) was 82.5% and the IC50 (rat RXFP2; read-out: HEK293-rat RXFP2 cAMP IC50) was 14.1 nM.
